Here are results for 7 molecules from publication doi:10.1101/812099 (bioRxiv, 2019).

To fix the notation:
B3: Kapβ2(ΔLoop) (natural protein)
chain: MEYEWKPDEQGLQQILQLLKESQSPDTTIQRTVQQKLEQLNQYPDFNNYLIFVLTKLKSEDEPTRSLSGLILKNNVKAHFQNFPNGVTDFIKSECLNNIGDSSPLIRATVGILITTIASKGELQNWPDLLPKLCSLLDSEDYNTCEGAFGALQKICEDSAEILDSDVLDRPLNIMIPKFLQFFKHSSPKIRSHAVACVNQFIISRTQALMLHIDSFIENLFALAGDEEPEVRKNVCRALVMLLEVRMDRLLPHMHNIVEYMLQRTQDQDENVALEACEFWLTLAEQPICKDVLVRHLPKLIPVLVNGMKYSDIDIILLKGGGSGGSGSDWNLRKCSAAALDVLANVYRDELLPHILPLLKELLFHHEWVVKESGILVLGAIAEGCMQGMIPYLPELIPHLIQCLSDKKALVRSITCWTLSRYAHWVVSQPPDTYLKPLMTELLKRILDSNKRVQEAACSAFATLEEEACTELVPYLAYILDTLVFAFSKYQHKNLLILYDAIGTLADSVGHHLNKPEYIQMLMPPLIQKWNMLKDEDKDLFPLLECLSSVATALQSGFLPYCEPVYQRCVNLVQKTLAQAMLNNAQPDQYEAPDKDFMIVALDLLSGLAEGLGGNIEQLVARSNILTLMYQCMQDKMPEVRQSSFALLGDLTKACFQHVKPCIADFMPILGTNLNPEFISVCNNATWAIGEISIQMGIEMQPYIPMVLHQLVEIINRPNTPKTLLENTAITIGRLGYVCPQEVAPMLQQFIRPWCTSLRNIRDNEEKDSAFRGICTMISVNPSGVIQDFIFFCDAVASWINPKDDLRDMFCKILHGFKNQVGDENWRRFSDQFPLPLKERLAAFYGV

One assay addresses T1, FUS-LC fused to mCherry (UniProt P35637 2-214).
T1 sequence: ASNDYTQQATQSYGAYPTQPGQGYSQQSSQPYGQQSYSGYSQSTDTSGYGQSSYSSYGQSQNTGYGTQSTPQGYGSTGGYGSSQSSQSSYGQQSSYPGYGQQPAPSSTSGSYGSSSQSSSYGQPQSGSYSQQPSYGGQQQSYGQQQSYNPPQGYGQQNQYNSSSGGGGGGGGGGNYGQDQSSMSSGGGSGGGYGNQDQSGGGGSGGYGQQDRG
The assay is described as follows: hydrogel binding assay.

The target in assay [1] is T2, Kapβ2 (UniProt Q92973-2 1-890).
T2 sequence: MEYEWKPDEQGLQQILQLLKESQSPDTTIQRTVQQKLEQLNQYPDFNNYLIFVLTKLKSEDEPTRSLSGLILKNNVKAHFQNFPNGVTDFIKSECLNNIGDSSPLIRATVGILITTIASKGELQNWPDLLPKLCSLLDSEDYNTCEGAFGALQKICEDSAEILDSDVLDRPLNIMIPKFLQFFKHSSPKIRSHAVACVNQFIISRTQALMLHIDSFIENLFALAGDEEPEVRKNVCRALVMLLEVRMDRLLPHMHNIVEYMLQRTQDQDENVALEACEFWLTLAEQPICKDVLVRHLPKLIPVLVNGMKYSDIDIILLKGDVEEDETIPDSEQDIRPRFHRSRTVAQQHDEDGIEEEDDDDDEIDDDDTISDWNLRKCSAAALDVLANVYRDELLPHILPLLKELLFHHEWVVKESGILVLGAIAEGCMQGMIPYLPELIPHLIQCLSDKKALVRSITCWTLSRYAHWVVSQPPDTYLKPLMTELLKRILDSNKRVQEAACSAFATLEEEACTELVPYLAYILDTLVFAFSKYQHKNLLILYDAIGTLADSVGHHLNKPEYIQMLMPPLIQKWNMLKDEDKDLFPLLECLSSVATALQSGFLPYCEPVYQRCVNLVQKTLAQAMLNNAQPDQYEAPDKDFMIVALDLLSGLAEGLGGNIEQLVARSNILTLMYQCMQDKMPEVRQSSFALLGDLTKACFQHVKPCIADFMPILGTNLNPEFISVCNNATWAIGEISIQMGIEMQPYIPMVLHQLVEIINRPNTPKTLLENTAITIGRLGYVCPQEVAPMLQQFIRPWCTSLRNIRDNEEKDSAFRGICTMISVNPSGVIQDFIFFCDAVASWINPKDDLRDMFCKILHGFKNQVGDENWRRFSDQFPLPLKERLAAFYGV
The assay is described as follows: pull-down.

Another assay concerns the target T3, GST-Kapβ2 (UniProt Q92973-2 1-890).
T3 sequence: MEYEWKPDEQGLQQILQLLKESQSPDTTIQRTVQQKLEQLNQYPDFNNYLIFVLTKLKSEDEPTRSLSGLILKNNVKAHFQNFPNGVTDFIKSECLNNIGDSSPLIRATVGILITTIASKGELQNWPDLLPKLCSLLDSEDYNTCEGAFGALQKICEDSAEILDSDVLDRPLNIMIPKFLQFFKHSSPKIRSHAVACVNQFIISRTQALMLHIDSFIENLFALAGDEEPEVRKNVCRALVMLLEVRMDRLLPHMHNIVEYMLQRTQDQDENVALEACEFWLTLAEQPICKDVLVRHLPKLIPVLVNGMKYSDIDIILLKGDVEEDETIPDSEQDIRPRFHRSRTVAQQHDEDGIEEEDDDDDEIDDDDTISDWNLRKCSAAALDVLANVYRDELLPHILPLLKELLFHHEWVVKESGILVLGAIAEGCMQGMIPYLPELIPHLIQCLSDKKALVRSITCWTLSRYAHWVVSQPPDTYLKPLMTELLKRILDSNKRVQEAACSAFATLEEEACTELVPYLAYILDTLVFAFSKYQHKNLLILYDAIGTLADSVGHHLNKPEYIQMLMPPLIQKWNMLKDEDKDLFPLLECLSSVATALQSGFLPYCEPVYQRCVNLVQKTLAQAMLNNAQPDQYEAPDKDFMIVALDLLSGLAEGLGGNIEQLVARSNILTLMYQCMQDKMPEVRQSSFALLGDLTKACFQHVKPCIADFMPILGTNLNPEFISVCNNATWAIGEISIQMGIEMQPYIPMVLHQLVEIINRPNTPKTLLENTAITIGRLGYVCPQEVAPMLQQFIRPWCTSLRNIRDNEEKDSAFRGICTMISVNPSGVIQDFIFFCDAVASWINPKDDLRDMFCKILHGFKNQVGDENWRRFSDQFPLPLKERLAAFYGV
The assay is described as follows: pull-down.

The assay “Kapβ2(ΔLoop)” addresses B3. Nature of the assay: ITC.
The target in assay [2] is T2, Kapβ2. The assay is described as follows: hydrogel binding assay.
For a further assay, the target named is T4, MBP-FUS (UniProt P35637 1-526).
T4 sequence: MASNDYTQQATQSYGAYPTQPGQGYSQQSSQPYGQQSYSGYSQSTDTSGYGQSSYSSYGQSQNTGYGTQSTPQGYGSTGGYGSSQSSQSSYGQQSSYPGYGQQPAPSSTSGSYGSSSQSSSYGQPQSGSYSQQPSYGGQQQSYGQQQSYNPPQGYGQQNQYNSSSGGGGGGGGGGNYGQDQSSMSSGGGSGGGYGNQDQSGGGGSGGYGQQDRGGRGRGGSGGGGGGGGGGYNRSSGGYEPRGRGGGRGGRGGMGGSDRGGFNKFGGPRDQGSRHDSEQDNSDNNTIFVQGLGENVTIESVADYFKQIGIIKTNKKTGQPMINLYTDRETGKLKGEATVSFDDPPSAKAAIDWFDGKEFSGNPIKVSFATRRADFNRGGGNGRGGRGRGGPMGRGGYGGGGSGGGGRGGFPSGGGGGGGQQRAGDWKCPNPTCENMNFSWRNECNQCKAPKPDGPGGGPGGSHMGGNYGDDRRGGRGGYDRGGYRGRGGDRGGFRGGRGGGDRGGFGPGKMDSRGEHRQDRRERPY
The assay is described as follows: ITC.

Assay [3] concerns the target T2, Kapβ2. The assay is described as follows: NMR titration.

B1: GFP:FUS-LC (domain or fragment)
chain: ASNDYTQQATQSYGAYPTQPGQGYSQQSSQPYGQQSYSGYSQSTDTSGYGQSSYSSYGQSQNTGYGTQSTPQGYGSTGGYGSSQSSQSSYGQQSSYPGYGQQPAPSSTSGSYGSSSQSSSYGQPQSGSYSQQPSYGGQQQSYGQQQSYNPPQGYGQQNQYNSSSGGGGGGGGGGNYGQDQSSMSSGGGSGGGYGNQDQSGGGGSGGYGQQDRG
In the case of B1, in the assay with FUS-LC fused to mCherry, the binding result was “binds”.

Regarding PRPRPRPRPRPRPRPRPRPRPRPRPRPRPRPRPRPR [GST-PR18], the binding result with Kapβ2 [1] was “binds”.

With PRPRPRPRPRPRPRPRPRPRPRPRPRPRPRPRPRPR [MBP-PR18], the binding result with GST-Kapβ2 is recorded as “binds”. Also, in the assay with Kapβ2(ΔLoop), binding was put at a Kd of 81.3 nM and the “stoichiometry N” value was 1.

B2: GFP:hnRNPA2-LC (domain or fragment)
chain: MQEVQSSRSGRGGNFGFGDSRGGGGNFGPGPGSNFRGGSDGYGSGRGFGDGYNGYGGGPGGGNFGGSPGYGGGRGGYGGGGPGYGNQGGGYGGGYDNYGGGNYGSGNYNDFGNYNQQPSNYGPMKSGNFGGSRNMGGPYGGGNYGPGGSGGSGGYGGRSRY
As for B2, in the assay with Kapβ2 [2], the binding result is “binds”.

As to B3, the binding result in the assay with MBP-FUS was “binds”.

B4: FUS(1-500) (domain or fragment)
chain: MASNDYTQQATQSYGAYPTQPGQGYSQQSSQPYGQQSYSGYSQSTDTSGYGQSSYSSYGQSQNTGYGTQSTPQGYGSTGGYGSSQSSQSSYGQQSSYPGYGQQPAPSSTSGSYGSSSQSSSYGQPQSGSYSQQPSYGGQQQSYGQQQSYNPPQGYGQQNQYNSSSGGGGGGGGGGNYGQDQSSMSSGGGSGGGYGNQDQSGGGGSGGYGQQDRGGRGRGGSGGGGGGGGGGYNRSSGGYEPRGRGGGRGGRGGMGGSDRGGFNKFGGPRDQGSRHDSEQDNSDNNTIFVQGLGENVTIESVADYFKQIGIIKTNKKTGQPMINLYTDRETGKLKGEATVSFDDPPSAKAAIDWFDGKEFSGNPIKVSFATRRADFNRGGGNGRGGRGRGGPMGRGGYGGGGSGGGGRGGFPSGGGGGGGQQRAGDWKCPNPTCENMNFSWRNECNQCKAPKPDGPGGGPGGSHMGGNYGDDRRGGRGGYDRGGYRGRGGDRGGFRGGRGG
As to B4, the binding result in the assay with Kapβ2 [3] is reported as “binds”.

Take PRPRPRPRPRPRPRPRPRPRPRPRPRPRPRPRPRPRPRPR [(Pro-Arg)20-HA]: in the assay with Kapβ2 [3], the binding result is “binds”.
